In US20030077740A1, “Presenilin/Crk binding polypeptides (PCBP) and methods of use thereof” (priority 2001, published 2003):

How the values were obtained:
[1] = target: T1, full length PS1 (Homo sapiens, UniProt P49768); assay: co-immunoprecipitation with full length PS1 in 293T cell lines; type: binding; settings: co-immunoprecipitation, 293T lines stably expressing PS1
T1 construct: three different clonal 293T cell lines which stably express full length PS1 were transfected with PBP-TAG; expressed in transfected cells; host or cells: clonal 293T cell lines stably expressing PS1
Source text: (§1) To examine the interaction of PBP with the fill length PS molecule, three different clonal 293T cell lines which stably express full length PS1 were transfected with PBP-TAG and the ability of PS1 to bind to PBP assayed by immunoprecipitation. Forty-eight hrs after transfection, cells were lysed and proteins immunoprecipitated with 12CA5 (anti-TAG), which recognizes PBP-TAG (anti-PBP-TAG). The immunoprecipitates were subjected to polyacrylamide gel electrophoresis, transferred to Immobilon-P, and reacted with anti-TAG or an anti-serum against PS1.
(§2) For immunoprecipitation of the large hydrophilic loop of PSs or Crk with PBP, cells were lysed in RIPA buffer (100 mM NaCl, 0.5% NP-40, 0.5% DOC, 0.1% SDS, 50 mM Tris, pH 7.5, 1 mM PMSF and 1 μg/ml aprotinin, 1 μg/l leupeptin) on ice for 30 min. For immunoprecipitation of full length PS1 with PBP, RIPA buffer with 1% NP40 but without DOC and SDS was used. Cell lysates were spun for 10 min at 10,000 g. The resulting supernatants were preadsorbed with anti-mouse IgG-agarose (Sigma) for 4 hours at 4° C. After centrifugation, antibody 12CA5 and anti-mouse IgG-agarose were added at 4° C. overnight. […] The bound antibodies were detected by the ECL-plus chemiluminescence system (Amersham, Arlington Heights, Ill.). […]

[2] = target: T2, full length PS1 (Homo sapiens, UniProt P49768, L392V); assay: as above; type: binding; settings: PS1 expressing the L392V mutation, overexpressing cells
T2 construct: three different clonal 293T cell lines which stably express full length PS1 were transfected with PBP-TAG; expressed in transfected cells; host or cells: clonal 293T cell lines stably expressing PS1
Source text: as §1, §2

[3] = tested on: HEK293 cells; assay: secretion of endogenous APP751 by HEK293 cells; type: cell-based; settings: HEK293 cells expressing PBP
Description: Western blotting, metabolic labeling and immunoprecipitation: For western blotting, cells were washed twice with ice-cold PBS and lysed in lysis buffer (1% Triton, 50 mM Hepes pH 7.5, 50 mM NaCl, 5 mM EDTA, 1 mM Na3VO4, 50 mM NaF, 10 mM Na4P2O7, plus a mixture of protease inhibitors (Complete Mini; Roche, Ind., USA). Protein concentrations were determined by Coomassie Plus (Pierce; IL, USA). The same amount of protein from each sample was separated on Novex pre-cast polyacrylamide gels (Invitrogen; CA, USA), and transferred to Immobulin membranes (Millipore; MA, USA). The membranes were blocked with 5% non-fat milk in Tris-buffered saline for 1 hour at room temperature. Following overnight incubation at 4° C. with primary antibodies, the antigens are detected with horseradish peroxidase-conjugated secondary antibodies (Bio-Rad; CA, USA; 1:20,000), an ECL kit (Amersham; NJ, USA), and exposed to films. For pulse-chase experiments, cells were grown to 80% confluency and incubated in methionine-free DMEM for 90 min. […] Protein concentrations were determined and the same amounts of proteins were immunoprecipitated with antibodies at 4° C. overnight 25 μl of anti-mouse IgG agarose (Roche) was then added to each sample and incubated at 4° C. for 2 hours on a rocker platform. […] The gels were dried and subjected to autoradiography and quantitated by NIH image. […]

PBP: novel 2027 amino acid protein, 233 kD, binds presenilins and Crk; expressed from cDNA in cells (KYGVVICSFRGSVPQGLVLEIGETVQILEKCEGWYRGVSTKKPNVKGLFPANYIHLK; listed as Mus musculus)
interaction with full length PS1 [1]: interacts
immune precipitation of PS1 L392V with PBP [2]: immune precipitate with PBP
secretion of endogenous APP751 [3]: reduced
